Blank lines part the entries; values can stand above or below the molecule they belong to.
What was measured:
[1] = target: cynomolgus BTN3A, endogenous on cynomolgus PBMCs (cynomolgus); assay: flow cytometry, cynomolgus PBMCs Donor 1, PE anti-human secondary
[2] = target: human BTN3A, endogenous on human cells (PBMCs; Daudi cells) (human) (UniProt O00481); assay: flow cytometry, human PBMCs Donor 1, from the fitted curve
[3] = target: human BTN3A, endogenous on human cells (PBMCs; Daudi cells) (human) (UniProt O00481); assay: flow cytometry, human PBMCs Donor 1, PE anti-human secondary
[4] = target: cynomolgus BTN3A, endogenous on cynomolgus PBMCs (cynomolgus); assay: flow cytometry, cynomolgus PBMCs Donor 1, from the fitted curve
[5] = target: BTN3A1 antigen (Sino Biological cat. no. 15973-H08H) (human) (UniProt O00481); assay: SPR Biacore T200, single cycle kinetics, culture supernatants
Sequence of BTN3A1 antigen (Sino Biological cat. no. 15973-H08H) (human) (O00481 30-254 limits assumed): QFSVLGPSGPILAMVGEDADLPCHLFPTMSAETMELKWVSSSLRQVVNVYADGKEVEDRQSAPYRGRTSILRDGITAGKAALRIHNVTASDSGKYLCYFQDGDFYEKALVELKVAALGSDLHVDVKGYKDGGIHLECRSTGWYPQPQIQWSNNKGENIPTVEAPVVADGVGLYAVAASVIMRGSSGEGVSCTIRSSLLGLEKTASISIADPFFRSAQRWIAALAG

[6] = target: cynomolgus BTN3A, endogenous on cynomolgus PBMCs (cynomolgus); assay: flow cytometry, cynomolgus PBMCs Donor 3, PE anti-human secondary
[7] = target: cynomolgus BTN3A, endogenous on cynomolgus PBMCs (cynomolgus); assay: flow cytometry, cynomolgus PBMCs Donor 3, from the fitted curve
[8] = target: cynomolgus BTN3A, endogenous on cynomolgus PBMCs (cynomolgus); assay: flow cytometry, cynomolgus PBMCs Donor 2, PE anti-human secondary
[9] = target: cynomolgus BTN3A, endogenous on cynomolgus PBMCs (cynomolgus); assay: flow cytometry, cynomolgus PBMCs Donor 2, from the fitted curve
[10] = target: BTN3A1 antigen (Sino Biological cat. no. 15973-H08H) (human) (UniProt O00481); assay: SPR Biacore T200, multi-cycle kinetics, antibody captured on Protein A, BTN3A1 as analyte
[11] = target: T1, BTN3A1 antigen (Sino Biological cat. no. 15973-H08H) (human, UniProt O00481 30-254); assay: as above
T1 construct: Bought recombinant antigen; also called CD277
T1 sequence (O00481 30-254 limits assumed): as above
Experimental: Multi-cycle kinetic analysis was performed on the six selected humanized 103.2 variants (VH4/Vκ2, VH4/Vκ3, VH4/Vκ4, VH5/Vκ2, VH5Vκ3, VH5/Vκ4) together with the chimeric antibody and the humanized variant, VH1/Vκ1, using a Biacore T200 (serial no. 1909913) instrument running Biacore T200 Evaluation Software V2.0.1 (Uppsala, Sweden).
Purified antibodies were diluted to a concentration of 2 μg/ml in 2% BSA/PBS. At the start of each cycle, each antibody was captured on the Protein A at a density (RL) of ˜146.5 RU (theoretical value to obtain an RMax of ˜50 RU). Following capture, the surface was allowed to stabilize before injection of the BTN3A1 antigen (Sino Biological cat. no. 15973-H08H). BTN3A1 was titrated in 0.1% BSA/HBS-P+(running buffer) in a two-fold dilution range from 25 to 0.78 nM. The association phase was monitored for 400 seconds and the dissociation phase for 35 minutes (2100 seconds). Kinetic data was obtained using a flow rate of 50 μl/min to minimize any potential mass transfer effects. Regeneration of the Protein A surface was conducted using two injections of 10 mM glycine-HCL pH 1.5 at the end of each cycle. Two blanks (no BTN3A1) and a repeat of a single concentration of the analyte were performed for each tested antibody to check the stability of the surface and analyte over the kinetic cycles. The signal from the reference channel Fc1 was subtracted from that of Fc2, Fc3 and Fc4 to correct for differences in non-specific binding to a reference surface. Additionally, blank runs were subtracted for each Fc to correct any antigen-independent signal variation, such as drift. Sensorgrams were fitted using a one-to-one binding mathematical model with a global RMax parameter and no bulk signal (Constant RI=0 RU).
The relative KD compared to 103.2 chimeric (VH0/Vκ0) was calculated by dividing the KD of the 103.2 Composite Human Antibody™ variants by that of the chimeric on the same chip.

[12] = target: T1, BTN3A1 antigen (Sino Biological cat. …); assay: SPR Biacore T200, single cycle kinetics, culture supernatants
Experimental: To assess the binding of all Composite Human Antibody™ variants and to select antibodies with suitable affinity to BTN3A as compared to the original murine antibody, single cycle kinetic analysis was performed on supernatants from transfected cell culture using a Biacore T200 (serial no. 1909913) running Biacore T200 Evaluation Software V2.0.1 (Uppsala, Sweden).

[13] = target: T2, human BTN3A, endogenous on human cells (PBMCs; Daudi cells) (human, UniProt O00481 30-513); assay: cell-based or functional assay
T2 sequence (O00481 30-513): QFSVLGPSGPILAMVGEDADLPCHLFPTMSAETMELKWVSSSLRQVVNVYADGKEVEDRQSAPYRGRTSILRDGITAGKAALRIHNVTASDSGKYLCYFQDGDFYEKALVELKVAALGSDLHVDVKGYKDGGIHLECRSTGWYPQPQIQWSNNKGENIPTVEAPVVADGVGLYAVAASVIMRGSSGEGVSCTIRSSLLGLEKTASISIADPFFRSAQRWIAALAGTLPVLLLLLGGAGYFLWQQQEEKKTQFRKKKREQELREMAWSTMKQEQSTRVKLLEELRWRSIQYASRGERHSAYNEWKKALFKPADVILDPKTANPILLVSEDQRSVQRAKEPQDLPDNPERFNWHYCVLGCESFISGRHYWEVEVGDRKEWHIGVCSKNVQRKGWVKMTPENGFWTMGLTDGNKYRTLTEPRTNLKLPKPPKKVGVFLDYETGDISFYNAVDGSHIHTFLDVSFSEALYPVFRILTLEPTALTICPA

[14] = target: T2, human BTN3A, endogenous on human cells …; assay: flow cytometry, human PBMCs Donor 1, PE anti-human secondary
Experimental: Frozen PBMCs were revived, added to pre-warmed AIM-V (ThermoFisher Scientific, Loughborough, UK) media and counted. Cells were harvested, washed by centrifuging at 500×g for 10 minutes and then resuspended in 1×DPBS, pH 7.4. This step was repeated once and the cells were resuspended in 1×DPBS, pH 7.4 at 1×10⁶ cells/mL. Cells were stained for viable and dead cells by incubating for half an hour in the dark using the LIVE/DEAD® Far Red Dead Cell staining kit (ThermoFisher, Paisley, UK) following the manufacturer's instructions. An aliquot of cells heated at 70° C. for ten minutes was included as the dead cell control. During this staining, a three-point, 1 in 3 titration curve of test antibody (starting from 0.063 μg/mL for the selected antibodies) was prepared in Flow buffer (0.5% BSA, 2 mM EDTA, 1×DPBS, pH 7.4) in a 96-well dilution plate. […] Cells were then analysed on an Attune NxT focusing cytometer (ThermoFisher Scientific, Loughborough, UK), collecting 10,000 events per sample using two laser channels: RL1 for live/dead cells and BL2 for PE. Data was analysed using the instrument statistic tool or FlowJo software (Version 10, FlowJo, LLC, Ashland, USA) gating on the live population of lymphocyte cells. The X-median values from BL2 channel (PE signal) were then calculated and plotted against concentration. […]

[15] = target: T3, human BTN3A3 expressed on HEK293 cells (human, UniProt O00478 30-584); assay: cell microarray (Retrogenix), fixed HEK293 cells, 2 µg/ml antibody
T3 construct: Cell microarray (Retrogenix); one isoform of BTN3A3 was a hit; also called BTN3A3 (one isoform)
T3 sequence (O00478 30-584 limits assumed): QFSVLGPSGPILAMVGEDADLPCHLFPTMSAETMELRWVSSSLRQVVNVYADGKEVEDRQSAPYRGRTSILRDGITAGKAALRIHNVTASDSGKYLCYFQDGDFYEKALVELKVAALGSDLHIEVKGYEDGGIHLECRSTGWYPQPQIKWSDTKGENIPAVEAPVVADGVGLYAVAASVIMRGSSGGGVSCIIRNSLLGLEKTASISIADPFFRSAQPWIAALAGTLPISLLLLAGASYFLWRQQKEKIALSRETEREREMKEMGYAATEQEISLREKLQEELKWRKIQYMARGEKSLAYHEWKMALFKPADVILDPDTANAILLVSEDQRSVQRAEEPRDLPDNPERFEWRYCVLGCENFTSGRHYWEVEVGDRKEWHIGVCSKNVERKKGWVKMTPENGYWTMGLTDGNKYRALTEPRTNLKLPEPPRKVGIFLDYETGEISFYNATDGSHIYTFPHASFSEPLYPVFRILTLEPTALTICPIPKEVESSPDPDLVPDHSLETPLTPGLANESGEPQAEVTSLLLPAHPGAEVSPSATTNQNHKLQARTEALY

[16] = target: T4, human BTN3A2 expressed on HEK293 cells (human, UniProt P78410 30-334); assay: as above
T4 construct: Cell microarray (Retrogenix); also called BTN3A2 (two isoforms)
T4 sequence (P78410 30-334 limits assumed): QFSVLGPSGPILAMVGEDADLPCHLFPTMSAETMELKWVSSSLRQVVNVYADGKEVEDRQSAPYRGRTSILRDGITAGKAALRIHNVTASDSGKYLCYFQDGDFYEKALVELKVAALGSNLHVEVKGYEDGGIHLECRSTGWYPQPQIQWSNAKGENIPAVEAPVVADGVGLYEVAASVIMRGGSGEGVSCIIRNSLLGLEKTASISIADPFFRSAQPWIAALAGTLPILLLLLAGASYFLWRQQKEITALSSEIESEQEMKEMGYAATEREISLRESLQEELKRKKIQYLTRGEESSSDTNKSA

Sequence of human BTN3A, endogenous on human cells (PBMCs; Daudi cells) (human) (O00481 30-513): as the sequence (O00481 30-513) above

EC50 [1]: 0.014 µg/mL | Theoretical Max binding (MFI) [2]: 19600 MFI | EC50 [3]: 0.019 µg/mL | Theoretical Max binding (MFI) [4]: 8950 MFI | Kd [5]: 0.0403 nM | Relative KD to 103.2 chimeric [5]: 1 | EC50 [6]: 0.013 µg/mL | Theoretical Max binding (MFI) [7]: 5150 MFI | EC50 [8]: 0.012 µg/mL | Theoretical Max binding (MFI) [9]: 5940 MFI | Kd [10]: 0.106 nM | Relative KD to chimeric [10]: 1 | koff [10]: 8.98e-05 s⁻¹ | kon [10]: 845000 M⁻¹ s⁻¹
Molecule: 103.2 chimeric antibody VH0/Vκ0

EC50 [1]: 0.013 µg/mL | Theoretical Max binding (MFI) [4]: 8560 MFI | Kd [11]: 0.108 nM | Relative KD to chimeric [11]: 1 ratio | koff [11]: 8.33e-05 s⁻¹ | kon [11]: 770000 M⁻¹ s⁻¹ | Kd [12]: 0.054 nM | Relative KD to 103.2 chimeric [12]: 1.3 ratio | EC50 [6]: 0.012 µg/mL | IC50 (µg/ml), inhibition of γδ T cell degranulation (CD107a/b) against Daudi cells [13]: 0.0121 µg/mL | Theoretical Max binding (MFI) [7]: 4970 MFI | EC50 [8]: 0.011 µg/mL | EC50 [14]: 0.017 µg/mL | Theoretical Max binding (MFI) [9]: 5820 MFI
B1: 103.2 humanized variant VH4/Vκ4 (antibody, V domains shown)
VH: QVQMQQSGAEVKKPGASVKVSCKASGYAFTSYLIHWIKQRPGQGLEWIGVINPRSGDSHYNEKFKDRVTMTADQSISTAYMELSRLRSDDTAVYYCARSDYGAYWGQGTLVTVSS
VL: EIVLTQSPATLSVSPGERATLSCRASQSISNNLHWYQQKPGQAPRLLIKYASQSAFGIPARFSGSGSGTEFTLTISSLQSEDFAVYFCQQSNSWPHTFGQGTKLEIK
notes: also called H4K4; 103.2 VH4/V κ 4

binding result [15]: binds | binding result [16]: binds
B2: mAb1 (Fc-silenced humanized 103.2 IgG1) (antibody, V domains shown)
VH: B1 VH
VL: EIVLTQSPATLSVSPGERATLSCRASQSISNNLHWYQQKPGQAPRLLIKYASQSAFGIPARFSGSGSGTEFTLTISSLQSEDFAVYFCQQSNSWPHTFGQGTKLEIKR
notes: Fc-silenced human IgG1, kappa; also called humanized 103.2 Fc-silenced IgG1; Hu103.2
